Experimental findings from publication PMC10046596, “Biophysical and Biochemical Characterization of the Binding of the MarR-like Transcriptional Regulator Saro_0803 to the nov1 Promotor and Its Inhibition by Resveratrol” (Biomolecules, 2023) are described below.

By Kd is commonly meant a measure of binding affinity in units of concentration. By stoichiometry N is commonly meant the number of molecules, sites or subunits per partner or assembly.

Positions count from the first letter of the chain named.

For data set [1], the target named is T1, Saro_0803 (Novosphingobium aromaticivorans, UniProt Q2GA75).
T1 construct: His-tagged Saro_0803 (pET-30a(+)), full-length; homogeneous dimer in solution
T1 sequence (Q2GA75 1-157): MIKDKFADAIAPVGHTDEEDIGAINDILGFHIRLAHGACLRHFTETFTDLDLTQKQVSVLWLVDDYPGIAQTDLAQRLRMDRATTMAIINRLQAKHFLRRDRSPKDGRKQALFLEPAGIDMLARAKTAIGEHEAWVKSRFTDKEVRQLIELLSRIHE
Briefly: ITC (also SPR, Kd […]; EMSA shows inhibition of nov1p^[…]bp binding).

Data set [2] addresses T2, Saro_0803 (Novosphingobium aromaticivorans DSM …, UniProt Q2GA75 1-157).
T2 sequence: T1 sequence (Q2GA75 1-157)
The data set is described as follows: EMSA; ITC: 50 mM Tris-HCl pH 8.0, 200 mM NaCl, 5% DMSO, 25 °C, 20 µM protein, 200 µM DNA; EMSA: 5.0 µM DNA (annealed in 50 mM Tris-HCl pH 8.0, 200 mM NaCl), 37 °C 30. As to conditions: protein: recombinant; tags: His-tag (pET-30a(+), NdeI/XhoI); chain copies: 2. On the technique in general: In EMSA bound probe runs differently from free probe, usually more slowly.

In the next data set the target is T3, Saro_0803 W61A (Novosphingobium aromaticivorans DSM …, UniProt Q2GA75 1-157, W61A).
T3 sequence: T1 sequence (Q2GA75 1-157) with W61A
Briefly: ITC, EMSA; micromolar or submicromolar; ITC: 50 mM Tris-HCl pH 8.0, 200 mM NaCl, 5% DMSO, 25 °C, 20 µM protein, 200 µM DNA; EMSA: 5.0 µM DNA (annealed in 50 mM Tris-HCl pH 8.0, 200 mM NaCl), 37 °C 30. The conditions noted are these: protein: recombinant; tags: His-tag; chain copies: 2.

Another data set has as its target T4, Saro_0803 F47A (Novosphingobium aromaticivorans DSM …, UniProt Q2GA75 1-157, F47A).
T4 sequence: T1 sequence (Q2GA75 1-157) with F47A
The description is as above. As to conditions: protein: recombinant; tags: His-tag; chain copies: 2.

Another data set has as its target T5, Saro_0803 F30A (Novosphingobium aromaticivorans DSM …, UniProt Q2GA75 1-157, F30A).
T5 sequence: T1 sequence (Q2GA75 1-157) with F30A
The data set is described as above. The conditions noted are these: protein: recombinant; tags: His-tag; chain copies: 2.

A further data set deals with T6, Saro_0803 F43A (Novosphingobium aromaticivorans DSM …, UniProt Q2GA75 1-157, F43A).
T6 sequence: T1 sequence (Q2GA75 1-157) with F43A
The description is as above. The conditions noted are these: protein: recombinant; tags: His-tag; chain copies: 2.

Another data set has as its target T7, Saro_0803 K55A (Novosphingobium aromaticivorans DSM …, UniProt Q2GA75 1-157, K55A).
T7 sequence: T1 sequence (Q2GA75 1-157) with K55A
Briefly: ITC; 5% DMSO; ITC: 50 mM Tris-HCl pH 8.0, 200 mM NaCl, 5% DMSO, 25 °C, 20 µM protein, 200 µM DNA; EMSA: 5.0 µM DNA (annealed in 50 mM Tris-HCl pH 8.0, 200 mM NaCl), 37 °C 30. The conditions noted are these: protein: recombinant; tags: His-tag; chain copies: 2. (In general: In ITC the heat of successive injections is recorded.)

A further data set concerns the target T8, Saro_0803 K109E (Novosphingobium aromaticivorans DSM …, UniProt Q2GA75 1-157, K109E).
T8 sequence: T1 sequence (Q2GA75 1-157) with K109E
The data set is described as above. As to conditions: protein: recombinant; tags: His-tag; chain copies: 2.

The target of another data set is T9, Saro_0803 R108A (Novosphingobium aromaticivorans DSM …, UniProt Q2GA75 1-157, R108A).
T9 sequence: T1 sequence (Q2GA75 1-157) with R108A
The description is as above. The conditions noted are these: protein: recombinant; tags: His-tag; chain copies: 2.

For the next data set, the target named is T10, Saro_0803 A87R (Novosphingobium aromaticivorans DSM …, UniProt Q2GA75 1-157, A87R).
T10 sequence: T1 sequence (Q2GA75 1-157) with A87R
Described as above. The conditions noted are these: protein: recombinant; tags: His-tag; chain copies: 2.

Data set [3] has as its target T2, Saro_0803. The description is as above. The conditions noted are these: protein: recombinant; tags: His-tag (pET-30a(+), NdeI/XhoI); chain copies: 2.
The next data set addresses T11, Saro_0803 K109A (Novosphingobium aromaticivorans DSM …, UniProt Q2GA75 1-157, K109A).
T11 sequence: T1 sequence (Q2GA75 1-157) with K109A
The description is as above. As to conditions: protein: recombinant; tags: His-tag; chain copies: 2.

A further data set deals with T12, Saro_0803 R108D (Novosphingobium aromaticivorans DSM …, UniProt Q2GA75 1-157, R108D).
T12 sequence: T1 sequence (Q2GA75 1-157) with R108D
The data set is described as above. The conditions noted are these: protein: recombinant; tags: His-tag; chain copies: 2.

Data set [4] deals with the molecule itself. Briefly: AUC; sedimentation velocity, protein ~1.0 mg/mL, 40,000 rpm for 2 h at 4 °C, c(s) analysis with Sedfit.
Data set [5] addresses T2, Saro_0803. The data set is described as follows: EMSA; 10 µM protein; ITC: 50 mM Tris-HCl pH 8.0, 200 mM NaCl, 5% DMSO, 25 °C, 20 µM protein, 200 µM DNA; EMSA: 5.0 µM DNA (annealed in 50 mM Tris-HCl pH 8.0, 200 mM NaCl), 37 °C 30. As to conditions: protein: recombinant; tags: His-tag (pET-30a(+), NdeI/XhoI); chain copies: 2.

Turning to `Oc1ccc(/C=C/c2cc(O)cc(O)c2)cc1` [resveratrol], the Kd at Saro_0803 [1] is around 35.7 µM.

B1: 18-bp upstream fragment (dsDNA)
DNA 1: CCAACGAATGCGCTTGTC
DNA 2: GACAAGCGCATTCGTTGG
With B1, in the data set with Saro_0803 [2], the binding result was “no binding”.

B2: downstream neighboring fragment (dsDNA)
DNA 1: TATTGCAAGGAGGATGCC
DNA 2: GGCATCCTCCTTGCAATA
With B2, the binding result with Saro_0803 [2] is reported as “no binding”.

B3: nov1p22bp (dsDNA)
DNA 1: TAATTGTTAGCAATACATACAA
DNA 2: TTGTATGTATTGCTAACAATTA
For the molecule B3, the binding result is “binds” with Saro_0803 W61A; “binds” in the data set with Saro_0803 F47A; “binds” with Saro_0803 F30A; “binds” in the data set with Saro_0803 F43A; “no binding” with Saro_0803 K109E; “no binding” with Saro_0803 R108A. Further, the binding result with Saro_0803 K109A and in the data set with Saro_0803 R108D was “no binding” each time. The binding signal in the data set with Saro_0803 K55A was ~3 fold decrease in affinity vs WT. The Kd with Saro_0803 A87R is around 1.16 µM; with Saro_0803 [3], around 3.57 µM.

B4: Saro_0803, MarR-like transcriptional regulator of Novosphingobium aromaticivorans DSM 12444 (natural protein, UniProt Q2GA75 1-157, looked up)
chain: T1 sequence (Q2GA75 1-157)
notes: Transcriptional regulator Saro_0803 (MarR family), encoded by gene saro_0803 of Novosphingobium aromaticivorans DSM 12444; theoretical MW of the tagged protein around 18.75 kDa; called full-length in contrast to the truncation 21-157; Cloned into pET-30a(+) by Nde I/Xho I; No removal of the tag is described; also called polyhistidine-tagged Saro_0803; His-tagged Saro_0803; source: E. coli …
As for B4, the “stoichiometry N” value in data set [4] was found to be 2.

B5: nov1p58bp with 15 bp 3' deletion (43 bp) (dsDNA)
DNA 1: CCAACGAATGCGCTTGTCTAATTGTTAGCAATACATACAATAT
DNA 2: ATATTGTATGTATTGCTAACAATTAGACAAGCGCATTCGTTGG
As for B5, the binding result with Saro_0803 [5] is on record as “no binding”.
